Reference: patent US10500249B2, “Compositions and methods for preventing or treating diseases, conditions, or processes characterized by aberrant fibroblast proliferation and extracellular matrix deposition” (MOERAE MATRIX, INC., priority 2014, dated 2019)

Assays:
Assay in all cases: Kinase Profiling Assay
Format in all cases: biochemical
Settings in all cases: 100 μM
MAPKAP-K2 (h) = MAPKAP-K2 (h) (Homo sapiens, UniProt P49137)
Method in brief: (§1)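 Each kinase activity was measured in duplicate. Phosphorylation of a positively charged substrate with radiolabeled phosphate from ATP was captured on a negatively charged filter, counted by scintillation and expressed relative to a 100% activity control. MK2 inhibitory peptides were screened for specificity across 266 human kinases.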

Yes (h) = Yes (h) (Homo sapiens, UniProt P07947)
Yes (h), sequence (P07947 whole entry): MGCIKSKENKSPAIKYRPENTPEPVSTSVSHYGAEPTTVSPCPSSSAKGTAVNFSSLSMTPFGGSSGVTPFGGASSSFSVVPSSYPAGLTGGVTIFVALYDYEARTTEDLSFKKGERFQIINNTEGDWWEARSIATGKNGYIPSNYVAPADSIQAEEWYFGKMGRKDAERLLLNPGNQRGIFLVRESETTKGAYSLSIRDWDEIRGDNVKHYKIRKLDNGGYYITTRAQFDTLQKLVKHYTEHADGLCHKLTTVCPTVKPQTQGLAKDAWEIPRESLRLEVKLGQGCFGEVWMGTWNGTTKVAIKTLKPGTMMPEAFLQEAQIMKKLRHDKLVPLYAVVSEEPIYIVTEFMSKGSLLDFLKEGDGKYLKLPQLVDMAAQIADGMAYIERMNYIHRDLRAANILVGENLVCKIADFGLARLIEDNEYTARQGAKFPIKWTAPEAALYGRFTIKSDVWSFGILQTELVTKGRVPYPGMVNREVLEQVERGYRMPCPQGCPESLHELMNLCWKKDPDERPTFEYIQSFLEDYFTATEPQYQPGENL
Method in brief: as §1

MST3 (h) = biological target: T1, MST3 (h) (Homo sapiens, UniProt Q9Y6E0)
T1 construct: purchased Millipore
T1 sequence (Q9Y6E0 whole entry): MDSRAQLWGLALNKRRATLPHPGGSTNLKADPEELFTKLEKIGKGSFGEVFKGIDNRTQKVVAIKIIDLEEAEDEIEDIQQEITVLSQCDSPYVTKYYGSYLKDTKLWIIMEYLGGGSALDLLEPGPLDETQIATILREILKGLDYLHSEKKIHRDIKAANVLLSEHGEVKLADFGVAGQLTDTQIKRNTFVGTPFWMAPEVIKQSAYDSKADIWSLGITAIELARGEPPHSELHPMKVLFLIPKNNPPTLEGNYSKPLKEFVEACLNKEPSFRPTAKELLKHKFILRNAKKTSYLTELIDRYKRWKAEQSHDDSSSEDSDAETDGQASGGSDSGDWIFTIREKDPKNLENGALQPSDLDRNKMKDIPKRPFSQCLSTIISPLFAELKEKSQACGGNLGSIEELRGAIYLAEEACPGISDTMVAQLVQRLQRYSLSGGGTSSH
Method in brief: as §1

EGFR(L858R) (h) = biological target: T2, EGFR(L858R) (h) (Homo sapiens, UniProt P00533, L858R)
T2 construct: purchased Millipore
Method in brief: as §1

MAPKAP-K3 (h) = MAPKAP-K3 (h) (Homo sapiens, UniProt Q16644)
MAPKAP-K3 (h), sequence (Q16644 whole entry): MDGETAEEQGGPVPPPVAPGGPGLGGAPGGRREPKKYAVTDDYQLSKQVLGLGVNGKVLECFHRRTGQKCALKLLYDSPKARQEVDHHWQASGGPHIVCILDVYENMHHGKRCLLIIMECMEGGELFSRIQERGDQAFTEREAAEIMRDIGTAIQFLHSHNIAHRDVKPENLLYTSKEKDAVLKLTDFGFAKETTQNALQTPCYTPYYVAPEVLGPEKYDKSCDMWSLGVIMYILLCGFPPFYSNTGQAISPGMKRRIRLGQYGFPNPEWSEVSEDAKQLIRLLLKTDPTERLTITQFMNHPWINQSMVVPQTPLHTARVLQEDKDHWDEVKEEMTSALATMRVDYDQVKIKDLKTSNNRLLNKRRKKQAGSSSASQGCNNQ
Method in brief: as §1

PKG1β (h) = biological target: T3, PKG1β (h) (Homo sapiens, UniProt Q13976)
T3 sequence (Q13976 1-686 isoform Q13976-2): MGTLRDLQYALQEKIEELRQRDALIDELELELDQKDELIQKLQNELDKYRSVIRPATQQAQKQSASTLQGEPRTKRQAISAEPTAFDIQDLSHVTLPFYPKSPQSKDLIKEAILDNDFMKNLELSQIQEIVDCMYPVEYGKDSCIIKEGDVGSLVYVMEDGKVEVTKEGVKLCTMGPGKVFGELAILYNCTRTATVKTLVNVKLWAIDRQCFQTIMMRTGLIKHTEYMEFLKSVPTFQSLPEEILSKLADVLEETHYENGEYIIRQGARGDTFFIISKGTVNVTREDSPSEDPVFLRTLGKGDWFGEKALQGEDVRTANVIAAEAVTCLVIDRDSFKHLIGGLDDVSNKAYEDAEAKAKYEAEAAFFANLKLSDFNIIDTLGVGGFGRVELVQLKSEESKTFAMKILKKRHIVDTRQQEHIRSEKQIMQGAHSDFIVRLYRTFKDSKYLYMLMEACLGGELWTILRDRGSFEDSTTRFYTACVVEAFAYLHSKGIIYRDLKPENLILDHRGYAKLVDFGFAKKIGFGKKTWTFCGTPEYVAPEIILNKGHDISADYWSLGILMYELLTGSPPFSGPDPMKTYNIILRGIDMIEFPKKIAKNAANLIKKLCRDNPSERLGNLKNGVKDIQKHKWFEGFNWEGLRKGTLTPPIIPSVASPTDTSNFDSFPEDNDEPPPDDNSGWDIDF
Method in brief: as §1

Tec (h) activated = biological target: T4, Tec (h) activated (Homo sapiens, UniProt P42680)
T4 sequence (P42680 1-631): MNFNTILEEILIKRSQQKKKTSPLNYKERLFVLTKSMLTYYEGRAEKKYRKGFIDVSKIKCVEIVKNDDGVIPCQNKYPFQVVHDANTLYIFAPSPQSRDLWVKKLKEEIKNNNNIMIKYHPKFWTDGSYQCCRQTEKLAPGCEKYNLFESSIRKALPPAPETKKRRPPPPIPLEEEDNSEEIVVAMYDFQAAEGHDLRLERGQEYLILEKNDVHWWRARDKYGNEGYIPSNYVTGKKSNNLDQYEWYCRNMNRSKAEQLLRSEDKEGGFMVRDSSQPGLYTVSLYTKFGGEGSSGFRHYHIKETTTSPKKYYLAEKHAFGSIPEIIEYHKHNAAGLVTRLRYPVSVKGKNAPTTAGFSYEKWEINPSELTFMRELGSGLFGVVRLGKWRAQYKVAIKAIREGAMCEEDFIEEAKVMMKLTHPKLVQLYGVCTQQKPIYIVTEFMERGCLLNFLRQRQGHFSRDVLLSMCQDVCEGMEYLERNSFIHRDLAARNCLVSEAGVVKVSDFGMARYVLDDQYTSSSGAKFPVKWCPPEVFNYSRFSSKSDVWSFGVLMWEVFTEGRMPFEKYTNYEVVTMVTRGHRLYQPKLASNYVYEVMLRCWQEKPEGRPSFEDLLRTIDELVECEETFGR
Method in brief: as §1

mTOR (h) = biological target: T5, mTOR (h) (Homo sapiens, UniProt P42345)
T5 construct: purchased Millipore
Method in brief: as §1

Abl(T315I) (h) = Abl(T315I) (h) (Homo sapiens, UniProt P00519, T315I)
Method in brief: as §1

PrKX (h) = biological target: T6, PrKX (h) (Homo sapiens, UniProt P51817)
T6 sequence (P51817 1-358): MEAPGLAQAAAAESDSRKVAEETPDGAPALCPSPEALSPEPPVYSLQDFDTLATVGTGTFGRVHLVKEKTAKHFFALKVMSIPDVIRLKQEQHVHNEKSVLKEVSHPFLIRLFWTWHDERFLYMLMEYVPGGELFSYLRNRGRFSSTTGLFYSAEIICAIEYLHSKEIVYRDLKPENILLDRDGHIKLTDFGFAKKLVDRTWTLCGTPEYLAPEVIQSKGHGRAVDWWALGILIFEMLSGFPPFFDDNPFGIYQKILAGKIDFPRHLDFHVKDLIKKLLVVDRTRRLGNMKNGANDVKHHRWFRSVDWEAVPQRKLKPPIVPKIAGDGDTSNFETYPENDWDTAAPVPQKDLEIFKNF
Method in brief: as §1

Plk3 (h) = Plk3 (h) (Homo sapiens, UniProt Q9H4B4)
Plk3 (h), sequence (Q9H4B4 whole entry): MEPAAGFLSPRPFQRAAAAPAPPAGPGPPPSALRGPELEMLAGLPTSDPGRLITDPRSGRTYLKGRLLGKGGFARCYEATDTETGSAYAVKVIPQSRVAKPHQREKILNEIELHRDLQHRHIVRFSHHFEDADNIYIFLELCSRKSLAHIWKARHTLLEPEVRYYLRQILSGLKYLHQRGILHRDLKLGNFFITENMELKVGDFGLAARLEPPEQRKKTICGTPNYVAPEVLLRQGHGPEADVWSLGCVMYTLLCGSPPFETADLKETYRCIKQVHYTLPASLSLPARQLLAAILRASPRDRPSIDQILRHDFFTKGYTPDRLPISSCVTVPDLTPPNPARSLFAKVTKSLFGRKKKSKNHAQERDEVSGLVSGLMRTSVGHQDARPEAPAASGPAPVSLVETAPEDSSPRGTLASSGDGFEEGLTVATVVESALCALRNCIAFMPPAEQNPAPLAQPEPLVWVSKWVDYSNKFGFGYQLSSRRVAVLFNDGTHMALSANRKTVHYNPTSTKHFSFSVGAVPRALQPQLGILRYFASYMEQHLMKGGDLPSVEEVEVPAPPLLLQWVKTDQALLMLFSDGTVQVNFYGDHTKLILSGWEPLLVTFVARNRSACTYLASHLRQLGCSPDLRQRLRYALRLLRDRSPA
Method in brief: as §1

MAPKAP-K2 (h), sequence (P49137 whole entry): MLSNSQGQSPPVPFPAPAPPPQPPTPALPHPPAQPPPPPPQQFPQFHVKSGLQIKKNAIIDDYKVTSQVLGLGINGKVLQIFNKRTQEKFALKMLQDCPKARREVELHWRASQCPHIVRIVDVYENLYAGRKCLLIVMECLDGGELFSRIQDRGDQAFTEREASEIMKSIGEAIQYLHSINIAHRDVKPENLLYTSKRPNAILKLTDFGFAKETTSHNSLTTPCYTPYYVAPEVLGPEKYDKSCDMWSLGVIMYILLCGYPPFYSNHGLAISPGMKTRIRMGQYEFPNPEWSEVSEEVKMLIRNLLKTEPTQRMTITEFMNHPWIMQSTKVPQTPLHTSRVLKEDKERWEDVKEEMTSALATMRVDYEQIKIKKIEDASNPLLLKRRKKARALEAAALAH

| Sequence | % activity (MAPKAP-K2 (h)) [%] | % activity (Yes (h)) [%] | % activity (MST3 (h)) [%] | % activity (EGFR(L858R) (h)) [%] | % activity (MAPKAP-K3 (h)) [%] | % activity (PKG1β (h)) [%] | % activity (Tec (h) activated) [%] | % activity (mTOR (h)) [%] | % activity (Abl(T315I) (h)) [%] | % activity (PrKX (h)) [%] | % activity (Plk3 (h)) [%] |
| --- | --- | --- | --- | --- | --- | --- | --- | --- | --- | --- | --- |
| YARAAARQARAKALNRQLGVA (Mammalian) [MMI-0200] | 35 | 93 | 95 | 120 | 39 | 57 | 77 | 110 | 108 | – | – |
| HRRIKAWLKKIKALARQLGVAA (Mammalian) [MMI-0500] | 9 | – | 4 | 26 | 9 | 24 | 33 | 135 | 16 | 57 | 122 |
| FAKLAARLYRKALARQLGVAA [MMI-0300] | 5 | 67 | 45 | – | 3 | 50 | 56 | 91 | 97 | 61 | 127 |
| KAFAKLAARLYRKALARQLGVAA [MMI-0400] | 5 | 14 | 36 | 52 | 7 | 53 | 29 | 93 | – | 76 | 129 |
